In publication PMC4728560, “TCTP contains a BH3-like domain, which instead of inhibiting, activates Bcl-xL” (Scientific Reports, 2016):
Where two headings read alike, the source gives them in different places.

Legend:
[1] = target: Bcl-xL, recombinant protein (human) (UniProt Q07817); test: ITC; peptide titrated into Bcl-xL in the cell; 30 °C, 50 mM ammonium bicarbonate pH 9; ITC200 calorimeter
[2] = target: Bcl-xL, recombinant protein (human) (UniProt Q07817); test: as above; remark: listed apart in the source

Sequence of Bcl-xL, recombinant protein (human) (Q07817 whole entry): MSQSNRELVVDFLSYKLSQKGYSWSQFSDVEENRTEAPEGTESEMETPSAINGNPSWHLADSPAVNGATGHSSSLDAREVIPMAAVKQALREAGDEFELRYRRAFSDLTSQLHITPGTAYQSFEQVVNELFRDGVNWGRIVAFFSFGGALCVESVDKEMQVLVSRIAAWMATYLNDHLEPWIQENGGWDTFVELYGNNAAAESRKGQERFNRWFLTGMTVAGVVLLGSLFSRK

B1: TCTP_(11–31) peptide (peptide)
peptide: DEMFSDIYKIREIADGLCLEV
For B1, which Kd [1] is on record?
The Kd was 12 µM.

And the Kd [2]?
Its Kd is 10 to 15 µM.
